According to IntAct's records for PubMed 22575959:

Target: rspo1_human RSPO1 (UniProt Q2MKA7)
Sequence (Q2MKA7 whole entry): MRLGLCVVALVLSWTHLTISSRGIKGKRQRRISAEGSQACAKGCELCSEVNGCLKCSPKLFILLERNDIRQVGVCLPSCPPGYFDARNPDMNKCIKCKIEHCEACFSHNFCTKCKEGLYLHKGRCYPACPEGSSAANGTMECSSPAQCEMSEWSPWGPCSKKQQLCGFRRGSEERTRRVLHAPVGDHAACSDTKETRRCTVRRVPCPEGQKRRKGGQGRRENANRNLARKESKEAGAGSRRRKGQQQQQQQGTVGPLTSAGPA

Substance: E3 ubiquitin-protein ligase ZNRF3 (Homo sapiens), Q9ULT6 P103A
- effect of a mutation on the interaction: disrupting interaction strength
